Measurements as given in patent US20260201396, “New LoxPsym Sites for Large-Scale Orthogonal Cre-Mediated Recombination” (VIB VZW, published 2026).
Residue numbers refer to the chain shown, from its start.

T1: Cre recombinase (Punavirus P1)
T1 chain: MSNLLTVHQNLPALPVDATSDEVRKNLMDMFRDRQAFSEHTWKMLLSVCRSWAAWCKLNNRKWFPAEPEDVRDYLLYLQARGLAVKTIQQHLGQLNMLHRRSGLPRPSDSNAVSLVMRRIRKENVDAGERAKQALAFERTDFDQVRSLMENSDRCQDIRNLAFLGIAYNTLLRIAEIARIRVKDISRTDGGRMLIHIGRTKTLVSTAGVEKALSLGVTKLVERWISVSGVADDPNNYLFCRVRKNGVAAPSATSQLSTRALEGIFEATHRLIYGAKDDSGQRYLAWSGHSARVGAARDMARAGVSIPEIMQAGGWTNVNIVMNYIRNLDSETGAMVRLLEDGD

B1: LoxPsym-GTG (dsDNA)
DNA 1: ATAACTTCGTATAGTGTACACTATACGAAGTTAT
DNA 2: B1 DNA 1
B2: LoxPsym-CTG (dsDNA)
DNA 1: B1 DNA 1 with G14C, C21G
DNA 2: B1 DNA 1 with G14C, C21G
B3: LoxPsym-GTT (dsDNA)
DNA 1: B1 DNA 1 with G16T, C19A
DNA 2: B1 DNA 1 with G16T, C19A
B4: LoxPsym-CTT (dsDNA)
DNA 1: B1 DNA 1 with G14C, G16T, C19A, C21G
DNA 2: B1 DNA 1 with G14C, G16T, C19A, C21G
B5: LoxPsym-AGC (dsDNA)
DNA 1: ATAACTTCGTATAAGCTAGCTTATACGAAGTTAT
DNA 2: B5 DNA 1
B6: LoxPsym-TTC (dsDNA)
DNA 1: B5 DNA 1 with A14T, G15T, C20A, T21A
DNA 2: B5 DNA 1 with A14T, G15T, C20A, T21A
B7: LoxPsym-CCC (dsDNA)
DNA 1: B5 DNA 1 with A14C, G15C, C20G, T21G
DNA 2: B5 DNA 1 with A14C, G15C, C20G, T21G
B8: LoxPsym-AAC (dsDNA)
DNA 1: B5 DNA 1 with G15A, C20T
DNA 2: B5 DNA 1 with G15A, C20T
B9: LoxPsym-CGA (dsDNA)
DNA 1: B5 DNA 1 with A14C, C16A, G19T, T21G
DNA 2: B5 DNA 1 with A14C, C16A, G19T, T21G
B10: LoxPsym-AGA (dsDNA)
DNA 1: B5 DNA 1 with C16A, G19T
DNA 2: B5 DNA 1 with C16A, G19T
B11: LoxPsym-ACA (dsDNA)
DNA 1: B5 DNA 1 with G15C, C16A, G19T, C20G
DNA 2: B5 DNA 1 with G15C, C16A, G19T, C20G
B12: LoxPsym-GCC (dsDNA)
DNA 1: B5 DNA 1 with A14G, G15C, C20G, T21C
DNA 2: B5 DNA 1 with A14G, G15C, C20G, T21C
B13: LoxPsym-GGG (dsDNA)
DNA 1: B1 DNA 1 with T15G, A20C
DNA 2: B1 DNA 1 with T15G, A20C
B14: LoxPsym-GGC (dsDNA)
DNA 1: B5 DNA 1 with A14G, T21C
DNA 2: B5 DNA 1 with A14G, T21C
B15: LoxPsym-AGT (dsDNA)
DNA 1: B5 DNA 1 with C16T, G19A
DNA 2: B5 DNA 1 with C16T, G19A
B16: LoxPsym-ACG (dsDNA)
DNA 1: B5 DNA 1 with G15C, C16G, G19C, C20G
DNA 2: B5 DNA 1 with G15C, C16G, G19C, C20G
B17: LoxPsym-TGA (dsDNA)
DNA 1: B5 DNA 1 with A14T, C16A, G19T, T21A
DNA 2: B5 DNA 1 with A14T, C16A, G19T, T21A
B18: LoxPsym-ATC (dsDNA)
DNA 1: B5 DNA 1 with G15T, C20A
DNA 2: B5 DNA 1 with G15T, C20A
B19: LoxPsym-AGG (dsDNA)
DNA 1: B5 DNA 1 with C16G, G19C
DNA 2: B5 DNA 1 with C16G, G19C
B20: LoxPsym-CGT (dsDNA)
DNA 1: B5 DNA 1 with A14C, C16T, G19A, T21G
DNA 2: B5 DNA 1 with A14C, C16T, G19A, T21G
B21: LoxPsym-AAG (dsDNA)
DNA 1: B5 DNA 1 with G15A, C16G, G19C, C20T
DNA 2: B5 DNA 1 with G15A, C16G, G19C, C20T
B22: LoxPsym-ATA (dsDNA)
DNA 1: B5 DNA 1 with G15T, C16A, G19T, C20A
DNA 2: B5 DNA 1 with G15T, C16A, G19T, C20A
B23: LoxPsym-CGC (dsDNA)
DNA 1: B5 DNA 1 with A14C, T21G
DNA 2: B5 DNA 1 with A14C, T21G
B24: LoxPsym-CTC (dsDNA)
DNA 1: B5 DNA 1 with A14C, G15T, C20A, T21G
DNA 2: B5 DNA 1 with A14C, G15T, C20A, T21G
B25: LoxPsym-GAC (dsDNA)
DNA 1: B5 DNA 1 with A14G, G15A, C20T, T21C
DNA 2: B5 DNA 1 with A14G, G15A, C20T, T21C
B26: LoxPsym-TGG (dsDNA)
DNA 1: B5 DNA 1 with A14T, C16G, G19C, T21A
DNA 2: B5 DNA 1 with A14T, C16G, G19C, T21A
B27: LoxPsym-ACC (dsDNA)
DNA 1: B5 DNA 1 with G15C, C20G
DNA 2: B5 DNA 1 with G15C, C20G
B28: LoxPsym-ATT (dsDNA)
DNA 1: B5 DNA 1 with G15T, C16T, G19A, C20A
DNA 2: B5 DNA 1 with G15T, C16T, G19A, C20A
B29: LoxPsym-GTC (dsDNA)
DNA 1: B1 DNA 1 with G16C, C19G
DNA 2: B1 DNA 1 with G16C, C19G
B30: LoxPsym-TCA (dsDNA)
DNA 1: ATAACTTCGTATATCATATGATATACGAAGTTAT
DNA 2: B30 DNA 1
B31: LoxPsym-CAA (dsDNA)
DNA 1: B30 DNA 1 with T14C, C15A, G20T, A21G
DNA 2: B30 DNA 1 with T14C, C15A, G20T, A21G
B32: LoxPsym-CCT (dsDNA)
DNA 1: B30 DNA 1 with T14C, A16T, T19A, A21G
DNA 2: B30 DNA 1 with T14C, A16T, T19A, A21G
B33: LoxPsym-TAA (dsDNA)
DNA 1: B30 DNA 1 with C15A, G20T
DNA 2: B30 DNA 1 with C15A, G20T
B34: LoxPsym-GAA (dsDNA)
DNA 1: B1 DNA 1 with T15A, G16A, C19T, A20T
DNA 2: B1 DNA 1 with T15A, G16A, C19T, A20T
B35: LoxPsym-TCT (dsDNA)
DNA 1: B30 DNA 1 with A16T, T19A
DNA 2: B30 DNA 1 with A16T, T19A
B36: LoxPsym-GTA (dsDNA)
DNA 1: B1 DNA 1 with G16A, C19T
DNA 2: B1 DNA 1 with G16A, C19T
B37: LoxPsym-GCA (dsDNA)
DNA 1: B30 DNA 1 with T14G, A21C
DNA 2: B30 DNA 1 with T14G, A21C
B38: LoxPsym-CTA (dsDNA)
DNA 1: B1 DNA 1 with G14C, G16A, C19T, C21G
DNA 2: B1 DNA 1 with G14C, G16A, C19T, C21G
B39: LoxPsym-TTT (dsDNA)
DNA 1: B1 DNA 1 with G14T, G16T, C19A, C21A
DNA 2: B1 DNA 1 with G14T, G16T, C19A, C21A
B40: LoxPsym-TCG (dsDNA)
DNA 1: B30 DNA 1 with A16G, T19C
DNA 2: B30 DNA 1 with A16G, T19C
B41: LoxPsym-CCA (dsDNA)
DNA 1: B30 DNA 1 with T14C, A21G
DNA 2: B30 DNA 1 with T14C, A21G

Biological target: T1, Cre recombinase
Test: cell_activity; as above
Description: Similar to the development of the original LoxPsym site by Hoess et al. (1986 J Cell Biochem), we edited the spacer of the LoxP site to obtain new non-directional recombination sites. In doing so, we focused on altering the first three nucleotides of the spacer (FIG. 2), as it was shown before that changing the nucleotides at position 4 and 5 of the spacer (T and A respectively) prevents recombination (Hoess et al 1986). The last three nucleotides were adapted accordingly to ensure the spacer remained palindromic. As such, we were able to design maximally 63 new potential LoxPsym sites. To test if the Cre enzyme was still able to recombine the new LoxPsym variants, we conducted a fluorescent-based assay in yeast via genomic integration of a fluorescence cassette which was flanked by identical LoxPsym variants at both sites (FIGS. 3A and 3C). Recombination of functional LoxPsym variants enables the deletion of the fluorescence cassette. The fraction of non-fluorescent cells in the population after induction of Cre-mediated recombination, was used to determine the recombination efficiency of the new LoxPsym sites. To verify if this set-up is valid for estimation of the recombination efficiency, the dual-fluorescent-reporter system shown in FIG. 3A was used to assess the frequency of inversion/deletion over time. […] Recombination efficiencies largely altered between different LoxPsym variants (Table 1). 63 new LoxPsym variants were obtained with altering recombination efficiencies ranging from 13% to 89%.

Point of comparison: B22, activity 43.1%. Against it:
- B1 — lower, 40.3%
- B2 — higher, 53.1%
- B3 — higher, 64.6%
- B4 — lower, 34.8%
- B5 — lower, 32.6%
- B6 — higher, 62.3%
- B7 — higher, 67.2%
- B8 — higher, 46%
- B9 — higher, 54.4%
- B10 — lower, 35.1%
- B11 — lower, 38.3%
- B12 — higher, 65.1%
- B13 — higher, 45.6%
- B14 — higher, 43.6%
- B15 — higher, 43.4%
- B16 — higher, 51.1%
- B17 — higher, 58.8%
- B18 — higher, 56.5%
- B19 — higher, 49.1%
- B20 — higher, 46.9%
- B21 — higher, 44.1%
- B23 — higher, 69.4%
- B24 — lower, 38.2%
- B25 — higher, 67.4%
- B26 — higher, 69.1%
- B27 — lower, 41.4%
- B28 — lower, 42.2%
- B29 — higher, 44.3%
- B30 — lower, 39.9%
- B31 — higher, 59.7%
- B32 — higher, 51.2%
- B33 — higher, 65.5%
- B34 — higher, 46.2%
- B35 — higher, 43.3%
- B36 — higher, 64.3%
- B37 — higher, 59.1%
- B38 — lower, 34.1%
- B39 — higher, 44.5%
- B40 — higher, 59%
- B41 — higher, 53.9%
